We go through 76 sequences from the supplement of paper PMC7877785.

The data set is described as follows: self-splicing fitness, log relative to wild type (ln ratio); higher = more splicing; Tetrahymena group I intron in knt gene, E. coli kanamycin selection, DiMSum; sequences stand for … in CUCUCU…GGAGGGAAAAGUUAUCAGGCAUGCACCUGGUAGCUAGUCUUUAAACCAAUAGAUUGCAUCGGUUUAAAAGGCAAGACCGUCAAAUUGCGGGAAAGGGGUCAACAGCCGUUCAGUACCAAGUCUCAGGGGAAACUUUGAGAUGGCCUUGCAAAGGGUAUGGUAAUAAGCUGACGGACAUGGUCCUAACCACGCAGCCAAGUCCUAAGUCAACAGAUCUUCUGUUGAUAUGGAUGCAGUUCACAGACUAAAUGUCGGUCGGGGAAGAUGUAUUCUUCUCAUAAGAUAUAGUCGGACCUCUCCUUAAUGGGAGCUAGCGGAUGAAGUGAUGCAACACUGGAGCCGCUGGGAACUAAUUUGUAUGCGAAAGUAUAUUGAUUAGUUUUGGAGUACUCGUGGUCG
Summed up:
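Library with all eight P1ex-region intron nucleotides randomised, intron inside the knt kanamycin-resistance gene on pET-22b(+), in E. coli BL21(DE3). Cells grew overnight at 37°C or 30°C on LB agar with or without 25 μg/mL kanamycin (plus 100 μg/mL carbenicillin, 50 μM IPTG, 0.2% rhamnose), in six replicate transformations. Pooled colonies were amplicon-sequenced on Illumina HiSeq 2500. DiMSum fitness is the error-weighted combination of wild-type-normalised replicate fold changes, kanamycin versus none.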

± gives the uncertainty stated by the source.

For CCCAAGCAAUAUUACGGUGA, the “self-splicing fitness (ln)” value runs as follows: (30 °C) -1.27 ± 0.07; (37 °C) -1.16 ± 0.077. The like results for CACGAGCAAUAUUACGACUU were, in that order, -4.4 ± 0.34 and -0.766 ± 0.13. The like results for CUACAGCAAUAUUACGAGAU were, in that order, -4.21 ± 0.37 and -2.96 ± 0.28. Take GAUGAGCAAUAUUACGCUAG: under “37 °C”, the “self-splicing fitness (ln)” value was -1.33 ± 0.39. As to CAUCAGCAAUAUUACGCUUA, the “self-splicing fitness (ln)” value (30 °C) was -1.77 ± 0.13 and the “self-splicing fitness (ln)” value (37 °C) was -0.562 ± 0.11. With AUACAGCAAUAUUACGUUGA, the “self-splicing fitness (ln)” value by setting is: (30 °C) -2.53 ± 0.095; (37 °C) -1.44 ± 0.088. CUACAGCAAUAUUACGAUGU: the “self-splicing fitness (ln)” value is, setting by setting: (30 °C) -3.46 ± 0.17; (37 °C) -2.44 ± 0.19.

On to GCACAGCAAUAUUACGUGGA, for which the “self-splicing fitness (ln)” value (30 °C) is -0.386 ± 0.064 and the “self-splicing fitness (ln)” value (37 °C) was -0.281 ± 0.065. The like results for CCAUAGCAAUAUUACGACUC were, in that order, -3.37 ± 0.32 and -2.18 ± 0.28. Consider UAUAAGCAAUAUUACGCGUG, for which the “self-splicing fitness (ln)” value reads like this: (30 °C) -1 ± 0.057; (37 °C) -0.488 ± 0.075. The like results for AACAAGCAAUAUUACGGGUU were, in that order, -2.34 ± 0.11 and -2.91 ± 0.16. For the sequence GGUGAGCAAUAUUACGCUGA, where the note is “37 °C”, the “self-splicing fitness (ln)” value was -2.84 ± 0.48. For the sequence CGAUAGCAAUAUUACGUUUU, the “self-splicing fitness (ln)” value runs as follows: (30 °C) -3.78 ± 0.19; (37 °C) -2.76 ± 0.16. For the sequence CUGCAGCAAUAUUACGACAG, the “self-splicing fitness (ln)” value was -2.43 ± 0.13 (30 °C) and -1.56 ± 0.18 (37 °C). Consider ACUCAGCAAUAUUACGCGCA, for which the “self-splicing fitness (ln)” value is, setting by setting: (30 °C) -0.615 ± 0.14; (37 °C) -0.153 ± 0.1.

As for ACAGAGCAAUAUUACGCCGU, the “self-splicing fitness (ln)” value is -2.59 ± 0.35 (30 °C) and -0.807 ± 0.33 (37 °C).

For UCAGAGCAAUAUUACGGCGG, the “self-splicing fitness (ln)” value (30 °C) was -1.41 ± 0.13 and the “self-splicing fitness (ln)” value (37 °C) worked out at 0.0537 ± 0.13. The like results for UCACAGCAAUAUUACGUCAG were, in that order, -1.59 ± 0.077 and -0.829 ± 0.1. The like results for CUGAAGCAAUAUUACGGUAU were, in that order, -3.66 ± 0.26 and -2.54 ± 0.28. The like results for AAACAGCAAUAUUACGCACC were, in that order, -0.45 ± 0.084 and -0.254 ± 0.099. As to GGUUAGCAAUAUUACGAAUA, the “self-splicing fitness (ln)” value was -1.94 ± 0.19 (30 °C) and -1.85 ± 0.26 (37 °C).

For UGUCAGCAAUAUUACGGGCG, the “self-splicing fitness (ln)” value was -1.71 ± 0.093 (30 °C) and -1.26 ± 0.12 (37 °C).

Consider UAUCAGCAAUAUUACGGUCG, for which the “self-splicing fitness (ln)” value (30 °C) is -0.0229 ± 0.059 and the “self-splicing fitness (ln)” value (37 °C) was found to be 0.259 ± 0.066.

On to GCAGAGCAAUAUUACGGUCG, for which the “self-splicing fitness (ln)” value is -3.23 ± 0.12 (30 °C) and -1.44 ± 0.1 (37 °C). The like results for UGGCAGCAAUAUUACGGGCG were, in that order, 0.162 ± 0.071 and 0.586 ± 0.1. Consider AGCGAGCAAUAUUACGAUCA, for which the “self-splicing fitness (ln)” value is -1.94 ± 0.26 (30 °C) and -2.08 ± 0.37 (37 °C). With UAUGAGCAAUAUUACGUCCA, the “self-splicing fitness (ln)” value is, setting by setting: (30 °C) -2.26 ± 0.26; (37 °C) -2.86 ± 0.4. On to ACACAGCAAUAUUACGUGGU, for which the “self-splicing fitness (ln)” value by setting is: (30 °C) -4.33 ± 0.16; (37 °C) -2.82 ± 0.11.

For the sequence AGUCAGCAAUAUUACGGGUA, the “self-splicing fitness (ln)” value is -2.02 ± 0.15 (30 °C) and -1.54 ± 0.14 (37 °C). The like results for UACAAGCAAUAUUACGAGGA were, in that order, -2.98 ± 0.2 and -1.8 ± 0.14.

Take AUGUAGCAAUAUUACGAAAG: the “self-splicing fitness (ln)” value is -2.59 ± 0.23 (30 °C) and -2.2 ± 0.26 (37 °C). For GAGGAGCAAUAUUACGUCUG, the “self-splicing fitness (ln)” value by setting is: (30 °C) -1.73 ± 0.15; (37 °C) -1.07 ± 0.18. As for UGCAAGCAAUAUUACGUACU, the “self-splicing fitness (ln)” value is, setting by setting: (30 °C) -0.936 ± 0.13; (37 °C) 0.0223 ± 0.17. As to ACAUAGCAAUAUUACGGGCU, the “self-splicing fitness (ln)” value is, setting by setting: (30 °C) -1.4 ± 0.13; (37 °C) -0.715 ± 0.16. The like results for CGGCAGCAAUAUUACGUAAG were, in that order, -0.428 ± 0.059 and 0.0199 ± 0.075. Turning to GAGCAGCAAUAUUACGGAAA, the “self-splicing fitness (ln)” value is, setting by setting: (30 °C) -3.08 ± 0.24; (37 °C) -2.84 ± 0.21.

Take UUUCAGCAAUAUUACGUCUC: the “self-splicing fitness (ln)” value runs as follows: (30 °C) -3.39 ± 0.4; (37 °C) -0.735 ± 0.17. The like results for CCUGAGCAAUAUUACGUUGC were, in that order, -2.07 ± 0.31 and -2.27 ± 0.43. For UCAUAGCAAUAUUACGUAGC, the “self-splicing fitness (ln)” value (30 °C) is -4.12 ± 0.3 and the “self-splicing fitness (ln)” value (37 °C) is -0.156 ± 0.15. The like results for CAAUAGCAAUAUUACGUAGU were, in that order, -3.31 ± 0.29 and -2.44 ± 0.22.

ACCCAGCAAUAUUACGUGCU: the “self-splicing fitness (ln)” value is -4.5 ± 0.23 (30 °C) and -1.67 ± 0.12 (37 °C). For UACCAGCAAUAUUACGGUCA, the “self-splicing fitness (ln)” value runs as follows: (30 °C) -0.0407 ± 0.07; (37 °C) 0.125 ± 0.1.

Turning to CGUGAGCAAUAUUACGAAUC, the “self-splicing fitness (ln)” value was -2.66 ± 0.2 (30 °C) and -2.34 ± 0.28 (37 °C). The like results for AUAUAGCAAUAUUACGCUCA were, in that order, -0.563 ± 0.18 and 0.319 ± 0.22. On to AUAGAGCAAUAUUACGUGGC, for which the “self-splicing fitness (ln)” value was -3.18 ± 0.4 (30 °C) and -2.7 ± 0.26 (37 °C). Take GUCCAGCAAUAUUACGGAUA: the “self-splicing fitness (ln)” value by setting is: (30 °C) -0.361 ± 0.056; (37 °C) 0.0186 ± 0.063. CAGGAGCAAUAUUACGUAGU: the “self-splicing fitness (ln)” value is, setting by setting: (30 °C) -3.42 ± 0.17; (37 °C) -1.55 ± 0.13. GCGAAGCAAUAUUACGGUUG: the “self-splicing fitness (ln)” value (30 °C) was -1.54 ± 0.11 and the “self-splicing fitness (ln)” value (37 °C) is -1.9 ± 0.15. The like results for CUCCAGCAAUAUUACGGGAC were, in that order, -2.79 ± 0.11 and -2.17 ± 0.14. The like results for GGUAAGCAAUAUUACGUUAC were, in that order, -3.08 ± 0.34 and -1.35 ± 0.31. In the case of GCUUAGCAAUAUUACGCACU, the “self-splicing fitness (ln)” value is, setting by setting: (30 °C) -0.857 ± 0.11; (37 °C) 0.197 ± 0.12. For GGAAAGCAAUAUUACGGAGU, the “self-splicing fitness (ln)” value was -3.76 ± 0.23 (30 °C) and -1.73 ± 0.18 (37 °C). The like results for AUACAGCAAUAUUACGAUAG were, in that order, -2.57 ± 0.18 and -3 ± 0.34. In the case of GAUUAGCAAUAUUACGGUUC, the “self-splicing fitness (ln)” value by setting is: (30 °C) -3.38 ± 0.18; (37 °C) -1.96 ± 0.23.

As for UACGAGCAAUAUUACGAAUU, the “self-splicing fitness (ln)” value (30 °C) was -4.2 ± 0.46 and the “self-splicing fitness (ln)” value (37 °C) is -3.21 ± 0.39.

GCAUAGCAAUAUUACGAAGA: the “self-splicing fitness (ln)” value by setting is: (30 °C) -2 ± 0.23; (37 °C) -0.497 ± 0.16. The like results for CCCAAGCAAUAUUACGUGCG were, in that order, -4.13 ± 0.21 and -2.28 ± 0.18. The like results for CGGUAGCAAUAUUACGGAGG were, in that order, -2.24 ± 0.087 and -0.94 ± 0.09. Turning to CGUAAGCAAUAUUACGAAAC, the “self-splicing fitness (ln)” value (30 °C) is -2.84 ± 0.32. For UUCUAGCAAUAUUACGCGAU, for the setting “30 °C”, the “self-splicing fitness (ln)” value is -1.99 ± 0.22. With GACCAGCAAUAUUACGUCUU, the “self-splicing fitness (ln)” value reads like this: (30 °C) 0.335 ± 0.05; (37 °C) 0.369 ± 0.068. The like results for CGAGAGCAAUAUUACGUUAC were, in that order, -4.23 ± 0.28 and -2.29 ± 0.24. The like results for UCGUAGCAAUAUUACGGAUA were, in that order, -1.59 ± 0.34 and -1.02 ± 0.28. The like results for CUCGAGCAAUAUUACGAUUG were, in that order, -2.53 ± 0.34 and -2.04 ± 0.3.

As for GUCCAGCAAUAUUACGGCAC, the “self-splicing fitness (ln)” value reads like this: (30 °C) -1.17 ± 0.064; (37 °C) -0.348 ± 0.092. For the sequence GUCUAGCAAUAUUACGUGUG, the “self-splicing fitness (ln)” value was -0.5 ± 0.063 (30 °C) and -0.649 ± 0.079 (37 °C). The like results for GGAAAGCAAUAUUACGGCGU were, in that order, -0.39 ± 0.071 and -0.31 ± 0.1. For GCCUAGCAAUAUUACGUGGG, the “self-splicing fitness (ln)” value is -4.52 ± 0.23 (30 °C) and -3.36 ± 0.3 (37 °C). For the sequence AGGUAGCAAUAUUACGCUAU, the “self-splicing fitness (ln)” value (30 °C) was -3.873 ± 0.037 and the “self-splicing fitness (ln)” value (37 °C) is -3.13 ± 0.047. As to GAAUAGCAAUAUUACGGAGC, the “self-splicing fitness (ln)” value was -3.44 ± 0.26 (30 °C) and -1.77 ± 0.21 (37 °C). With GUUCAGCAAUAUUACGGGUA, the “self-splicing fitness (ln)” value is -2.23 ± 0.12 (30 °C) and -0.474 ± 0.097 (37 °C). Take CAUAAGCAAUAUUACGAAAG: the “self-splicing fitness (ln)” value was -1.13 ± 0.09 (30 °C) and -0.268 ± 0.12 (37 °C). For AUGCAGCAAUAUUACGGGUC, the “self-splicing fitness (ln)” value (30 °C) is -3.56 ± 0.31 and the “self-splicing fitness (ln)” value (37 °C) was -1.61 ± 0.13. The like results for CUCCAGCAAUAUUACGGAAU were, in that order, -4.1 ± 0.21 and -2.27 ± 0.16. The like results for GACAAGCAAUAUUACGCUGC were, in that order, -3.6 ± 0.16 and -2.87 ± 0.19.

As to ACAAAGCAAUAUUACGCGGU, the “self-splicing fitness (ln)” value reads like this: (30 °C) -3.37 ± 0.13; (37 °C) -2.68 ± 0.14.
